B1: recombinant human βig-h3 protein βig-h3 His-β-b (truncated βig-h3) (ligand)
chain: WYQRKICGKSTVISYECCPGYEKVPGEKGCPAALPLSNLYETLGVVGSTTTQLYTDRTEKLRPEMEGPGSFTIFAPSNEAWASLPAEVLDSLVSNVNIELLNALRYHMVGRRVLTDELKHGMTLTSMYQNSNIQIHHYPNGIVTVNCARLLKADHHATNGVVHLIDKVISTITNNIQQIIEIEDTFETLRAAVAASGLNTMLEGNGQYTLLAPTNEAFEKIPSETLNRILGDPEALRDLLNNHILKSAMCAEAIVAGLSVETLEGTTLEVGCSGDMLTINGKAIISNKDILATNGVIHYIDELLIPDSAKTLFELAAESDVSTAIDLFRQAGLGNHLSGSERLTLLAPLNSVFKDGTPPIDAHTRNLLRNHIIKDQLASKYLYHGQTLETLGGKKLRVFVYRNSLCIENSCIAAHDKRGRYGTLFTMDRVLTPPMGTVMDVLKGDNRFSMLVAAIQSAGLTETLNREGVYTVFAPTNEAFRALPPRERSRLLGDAKELANILKYHIGDEILVSGGIGALVRLKSLQGDKLEVSLKNNVVSVNKEPVAEPDIMATNGVVHVITNVLQPPANRPQERGDELADSALEI
notes: also called βig-h3 His-1-b; Wild-type; not shown: vector-derived residues / His tag from the pET-29 vector (Ni-NTA purified, detected with His-probe-HRP)
B2: βig-h3 D-IV (recombinant protein containing the fourth fas-1 domain of human βig-h3) (ligand)
chain: MGTVMDVLKGDNRFSMLVAAIQSAGLTETLNREGVYTVFAPTNEAFRALPPRERSRLLGDAKELANILKYHIGDEILVSGGIGALVRLKSLQGDKLEVSLKNNVVSVNKEPVAEPDIMATNGVVHVITNVL
notes: Cloned in pET-29b(+), Ni-NTA purified; also called fas-1 protein

How the values were obtained:
[1] = biological target: T1, αvβ3 integrin (human, UniProt P06756 31-1048; P05106 27-788); assay: binding to HUVECs, Scatchard analysis (Example 16); reference: fas-1 domain (βig-h3 D-IV)
T1 construct: whole, on cells; On human umbilical vein endothelial cells (HUVECs); also called αvβ3 integrin of endothelial cells
T1 sequence (P06756 31-1048, chain 1 of 2): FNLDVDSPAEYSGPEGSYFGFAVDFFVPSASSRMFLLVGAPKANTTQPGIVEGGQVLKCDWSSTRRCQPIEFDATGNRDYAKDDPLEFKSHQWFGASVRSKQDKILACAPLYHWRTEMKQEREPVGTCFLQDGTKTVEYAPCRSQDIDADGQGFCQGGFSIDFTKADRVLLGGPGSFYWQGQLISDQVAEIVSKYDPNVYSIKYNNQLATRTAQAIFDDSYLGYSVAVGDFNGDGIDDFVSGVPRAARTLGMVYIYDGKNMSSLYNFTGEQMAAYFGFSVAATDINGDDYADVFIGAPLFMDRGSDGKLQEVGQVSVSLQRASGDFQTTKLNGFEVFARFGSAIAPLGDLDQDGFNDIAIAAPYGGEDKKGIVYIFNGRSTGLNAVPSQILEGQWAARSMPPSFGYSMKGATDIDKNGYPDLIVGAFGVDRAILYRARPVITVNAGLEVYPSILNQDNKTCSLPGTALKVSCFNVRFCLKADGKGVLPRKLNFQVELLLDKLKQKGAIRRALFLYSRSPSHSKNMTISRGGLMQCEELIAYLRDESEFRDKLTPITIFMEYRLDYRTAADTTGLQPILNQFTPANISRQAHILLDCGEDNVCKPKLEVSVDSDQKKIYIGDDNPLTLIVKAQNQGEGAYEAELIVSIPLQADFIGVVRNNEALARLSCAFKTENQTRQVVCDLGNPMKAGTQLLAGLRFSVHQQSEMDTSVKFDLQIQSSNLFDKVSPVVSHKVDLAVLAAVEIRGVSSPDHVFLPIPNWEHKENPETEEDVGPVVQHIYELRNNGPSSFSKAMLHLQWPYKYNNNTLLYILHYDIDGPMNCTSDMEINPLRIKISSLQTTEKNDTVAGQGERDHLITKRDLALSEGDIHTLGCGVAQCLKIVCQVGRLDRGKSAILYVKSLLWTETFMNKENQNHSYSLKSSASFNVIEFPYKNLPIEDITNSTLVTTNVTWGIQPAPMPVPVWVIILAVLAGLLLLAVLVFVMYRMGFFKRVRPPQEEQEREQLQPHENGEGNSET
T1 sequence (P05106 27-788, chain 2 of 2): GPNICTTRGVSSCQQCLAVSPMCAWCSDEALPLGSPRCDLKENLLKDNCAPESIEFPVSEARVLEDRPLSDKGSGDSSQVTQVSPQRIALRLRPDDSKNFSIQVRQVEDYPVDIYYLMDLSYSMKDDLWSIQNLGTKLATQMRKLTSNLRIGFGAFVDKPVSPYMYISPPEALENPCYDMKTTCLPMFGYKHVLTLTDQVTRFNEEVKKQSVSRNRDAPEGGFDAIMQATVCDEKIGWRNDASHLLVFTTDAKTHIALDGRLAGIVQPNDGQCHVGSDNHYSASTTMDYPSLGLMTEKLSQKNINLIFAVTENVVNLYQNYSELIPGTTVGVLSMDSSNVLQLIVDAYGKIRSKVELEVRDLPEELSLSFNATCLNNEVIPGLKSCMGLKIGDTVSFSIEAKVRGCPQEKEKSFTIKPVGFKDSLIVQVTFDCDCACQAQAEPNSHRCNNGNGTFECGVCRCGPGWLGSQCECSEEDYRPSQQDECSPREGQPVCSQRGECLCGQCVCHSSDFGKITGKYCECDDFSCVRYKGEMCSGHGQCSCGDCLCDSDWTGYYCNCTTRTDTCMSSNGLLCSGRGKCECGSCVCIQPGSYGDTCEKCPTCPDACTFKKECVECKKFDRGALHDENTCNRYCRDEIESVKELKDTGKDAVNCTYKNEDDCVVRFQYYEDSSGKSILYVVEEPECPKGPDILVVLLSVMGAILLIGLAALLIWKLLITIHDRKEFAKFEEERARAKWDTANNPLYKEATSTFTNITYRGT
Experimental: (§1) HUVECs (3×10⁴ cells/100 μl) were seeded in the 96-well plates and then incubated with increasing concentrations of each protein for 1 hour at room temperature. Cell binding of each protein was detected by His-probe-HRP antibody and quantified by measuring hexosaminidase.

[2] = biological target: T1, αvβ3 integrin; assay: binding of His-tagged protein to HUVECs in 96-well plates, His-probe-HRP detection, Scatchard analysis
Experimental: as §1

Binder	Kd relative to that of the fas-1 domain of βig-h3 [1] [fold less]	Kd [2] [µM]
B1	100	~0.303
B2	–	~30
